T1: full-length monkey CD137 on the cell surface (cynomolgus monkey, UniProt Q07011 24-179 (human entry))
T1 chain: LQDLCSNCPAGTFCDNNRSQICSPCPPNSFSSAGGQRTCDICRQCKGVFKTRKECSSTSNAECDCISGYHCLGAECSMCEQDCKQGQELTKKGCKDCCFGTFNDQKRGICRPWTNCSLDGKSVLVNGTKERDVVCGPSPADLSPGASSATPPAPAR

T2: full-length mouse CD137 on the cell surface (mouse, UniProt P20334 24-178)
T2 sequence: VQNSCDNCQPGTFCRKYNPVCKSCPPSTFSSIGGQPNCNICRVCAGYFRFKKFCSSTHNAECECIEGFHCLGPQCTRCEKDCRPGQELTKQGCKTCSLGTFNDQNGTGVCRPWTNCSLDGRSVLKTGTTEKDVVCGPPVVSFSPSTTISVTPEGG

T3: CD95
T3 chain: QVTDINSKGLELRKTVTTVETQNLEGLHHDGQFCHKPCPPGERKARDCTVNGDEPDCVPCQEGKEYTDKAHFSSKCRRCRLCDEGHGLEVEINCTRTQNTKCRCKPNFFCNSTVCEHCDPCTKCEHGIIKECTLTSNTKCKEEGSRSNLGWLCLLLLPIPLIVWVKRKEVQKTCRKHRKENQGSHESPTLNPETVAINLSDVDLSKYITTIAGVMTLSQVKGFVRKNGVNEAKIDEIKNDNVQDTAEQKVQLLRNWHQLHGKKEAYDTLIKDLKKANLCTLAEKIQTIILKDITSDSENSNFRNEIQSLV

T4: CD120a
T4 chain: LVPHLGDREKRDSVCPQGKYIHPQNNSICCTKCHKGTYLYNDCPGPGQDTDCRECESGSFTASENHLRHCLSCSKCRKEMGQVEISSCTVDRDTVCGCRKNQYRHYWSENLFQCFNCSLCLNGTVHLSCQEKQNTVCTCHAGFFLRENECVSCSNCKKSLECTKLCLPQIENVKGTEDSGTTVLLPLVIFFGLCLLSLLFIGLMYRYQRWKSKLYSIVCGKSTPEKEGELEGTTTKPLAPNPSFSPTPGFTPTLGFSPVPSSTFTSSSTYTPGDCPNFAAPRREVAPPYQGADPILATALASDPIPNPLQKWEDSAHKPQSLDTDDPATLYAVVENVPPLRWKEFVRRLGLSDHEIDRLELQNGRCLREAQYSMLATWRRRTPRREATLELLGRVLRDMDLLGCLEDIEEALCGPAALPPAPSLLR


Key:
[1] = molecular target: T1, full-length monkey CD137 on the cell …; assay: flow cytometry, HEK293F cells expressing CD137 or mutant [Cont.]
Procedure: Transfected cells were washed in pre-chilled staining buffer (PBS supplemented with 2% FBS), then incubated with 100 nM test antibodies for 1 hr on ice. […] Samples were washed once with staining buffer prior to analysis by flow cytometry.
To determine the binding regions of the tested antibodies at amino acid residue level, a series of mutations (Table 5) were made at the extracellular domain of human CD137. These CD137 mutation plasmids were used to transfect HEK293F cells.

[2] = molecular target: T2, full-length mouse CD137 on the cell …; assay: flow cytometry, HEK293F
Procedure: The affinity of antibodies were also assessed against human, monkey and mouse CD137 that are transiently expressed on the surface of HEK293F cells. Briefly, HEK293F cells were transfected with a plasmid expressing full-length human, monkey or mouse CD137 from a bicistronic IRES vector, EGFP was used to identify the transfected cells. After 48 hrs, the transfected cells were harvested and then washed once with cold FACS buffer (PBS supplemented with 1% BSA). […] The cells were washed once prior to analysis by flow cytometry (Beckman® CytoFlex).

[3] = molecular target: T5, Hu_F36A (human, UniProt Q07011 18-255); assay: flow cytometry, HEK293F
T5 construct: On HEK293F; also called human CD137 F36A
Procedure: (§1) The selectivity of antibodies for CD137 was evaluated using flow cytometry analysis of their binding ability to members of TNFR superfamily. The TNFRSF receptors including CD137, OX40, CD40, GITR and CD27 were transiently overexpressed on the surface of HEK293F cells. Transfected cells were washed in pre-chilled staining buffer (PBS supplemented with 2% FBS), then incubated with 100 nM test antibodies for 1 hr on ice. […] Samples were washed once with staining buffer prior to analysis by flow cytometry.

[4] = molecular target: T6, Hu_F72A (human, UniProt Q07011 18-255); assay: flow cytometry, HEK293F
T6 construct: On HEK293F; also called human CD137 F72A
Procedure: as §1

[5] = molecular target: T7, Hu_F92A (human, UniProt Q07011 18-255); assay: flow cytometry, HEK293F
T7 construct: On HEK293F; also called human CD137 F92A
Procedure: as §1

[6] = molecular target: T3, CD95; assay: flow cytometry, HEK293F cells expressing the receptor [Cont.]
Procedure: as §1

[7] = molecular target: T4, CD120a; assay: as above
Procedure: as §1

T6 sequence (Q07011 18-255 F72A): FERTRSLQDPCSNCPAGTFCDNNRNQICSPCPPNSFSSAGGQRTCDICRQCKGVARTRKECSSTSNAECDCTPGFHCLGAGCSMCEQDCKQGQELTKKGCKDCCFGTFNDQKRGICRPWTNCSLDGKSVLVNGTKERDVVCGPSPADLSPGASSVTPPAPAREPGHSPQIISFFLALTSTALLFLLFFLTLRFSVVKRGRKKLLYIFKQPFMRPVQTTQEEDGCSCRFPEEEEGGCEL
T5 sequence (Q07011 18-255 F36A): as the sequence (Q07011 18-255 F72A) above, with F19A, A55F counted along it

% in upper right quadrant [1] [%] | Kd [2] [nM] | binding result [3] | binding result [4] | binding result [5] | Binder | binding result [6] | binding result [7]
42.4 | – | – | – | – | AG10059 (antibody, human IgG4 S228P, kappa, V domains shown) VH: EVQLVESGGGLVQPGGSLRLSCAASGYSITSGHYWAWIRQAPGKGLEWVSSISGYGSTTYYADSVKGRFTISRDNSKNTLYLQLNSLRAEDTAVYYCARGGSDAVLGDWFAYWGQGTLVTVSS VL: DIQLTQSPSSLSASVGDRVTITCRASQGIGSFLAWYQQKPGKAPKLLIYDASNLETGVPSRFSGSGSGTDFTLTISSLQPEDFATYYCQQGYYLWTFGQGTKVEIKR | – | –
– | 10.1 | no binding | no binding | no binding | AG10058 (antibody, human IgG4 S228P, kappa, V domains shown) VH: EVQLVESGGGLVQPGGSLRLSCAASGFSLSTSGVGVGWIRQAPGKGLEWLALIDWDDDKYYSPSLKSRLTISRDNSKNTLYLQLNSLRAEDTAVYYCARGGSDTVLGDWFAYWGQGTLVTVSS VL: DIQLTQSPSSLSASVGDRVTITCRASQSVSPYLAWYQQKPGKAPKLLIYDASSLESGVPSRFSGSGSGTDFTLTISSLQPEDFATYYCQQGYSLWTFGQGTKVEIKR | no binding (tested: 100 nM (text paragraph 226)) | no binding (tested: 100 nM (text paragraph 226))

From patent US20190055314A1 (ADAGENE, published 2019)
